Consider 2 molecules from US20220056141A1 (DEUTSCHES KREBSFORSCHUNGSZENTRUM STIFTUNG DES OFFENTLICHEN …, published 2022).

The target of experiment [1] is T1, CD3 on Jurkat cells (human, UniProt P07766 23-207).
T1 construct: whole, on cells; also called Jurkat (CD3+); human cluster of differentiation 3 (CD3) antigen
In words: flow cytometry on Jurkat cells (CD3+), 30 min incubation, PE-conjugated goat anti-human Fc-gamma secondary antibody. As to the method:
(§1) In addition, antibody binding affinity was also tested using binding of the antibody to its target(s) as expressed on cells. Analyzed is the binding of CC-2 variants to Nalm16 cells expressing FLT3 (FIG. 4) or Jurkat cells expressing CD3 (FIG. 6). Variants V1 to V9 (with V6 being V6-V6) were produced after transient transfection of CHO cells using the insert sequences listed above. The antibodies were purified by protein A affinity- and size exclusion-chromatography. […] To measure antibody binding to FLT3 and CD3 NALM16 (FLT3+) and Jurkat (CD3+) cells were incubated with the respective variants for 30 min, washed, stained with a goat anti human Fcγ-specific and PE-conjugated secondary antibody (Jackson Immuno Research), washed again and analyzed by flow cytometry (FACSCalibur, BD Biosciences).

Experiment [2] concerns the target T1, CD3 on Jurkat cells. The experiment is described as follows: flow cytometry (value under the bar; by the legend the EC50 of the binding to Jurkat cells of FIG. 6). As for the experimental part: as §1

T1 sequence (P07766 23-207): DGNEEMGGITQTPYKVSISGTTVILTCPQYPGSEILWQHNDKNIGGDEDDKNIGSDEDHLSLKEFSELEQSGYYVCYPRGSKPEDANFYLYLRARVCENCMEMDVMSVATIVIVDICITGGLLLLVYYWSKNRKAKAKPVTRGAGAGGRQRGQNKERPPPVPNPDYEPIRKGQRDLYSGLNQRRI

B1: bispecific FLT3xCD3 IgGsc antibody V6-V9 (bispecific antibody)
heavy: QVQLQQPGAELVKPGASLKLSCKSSGYTFTSYWMHWVRQRPGHGLEWIGEIDPSDSYKDYNQKFKDKATLTVDRSSNTAYMHLSSLTSDDSAVYYCARAITTTPFDFWGQGTTLTVSSASTKGPSVFPLAPSSKSTSGGTAALGCLVKDYFPEPVTVSWNSGALTSGVHTFPAVLQSSGLYSLSSVVTVPSSSLGTQTYICNVNHKPSNTKVDKKVEPKSCDKTHTCPPCPAPPVAGPSVFLFPPKPKDTLMISRTPEVTCVVVGVSHEDPEVKFNWYVDGVEVHNAKTKPREEQYNSTYRVVSVLTVLHQDWLNGKEYKCKVSNKQLPSPIEKTISKAKGQPREPQVYTLPPSRDELTKNQVSLTCLVKGFYPSDIAVEWESNGQPENNYKTTPPVLDSDGSFFLYSKLTVDKSRWQQGNVFSCSVMHEALHNHYTQKSLSLSPGKSGEVQLVESGGGLVQPGGSLRLSCAASGYSFTGYTMNWVRQAPGKGLEWVALINPYKGVSTYNQKFKDRFTISVDKSKNTAYLQMNSLRAEDTAVYYCARSGYYGDSDWYFDVWGQGTLVTVSSGGGGSGGGGSGGGGSDIQMTQSPSSLSASVGDRVTITCRASQDIRNYLNWYQQKPGKAPKLLIYYTSRLESGVPSRFSGSGSGTDYTLTISSLQPEDFATYYCQQGNTLPWTFGQGTKVEIK
light: DIVLTQSPATLSVTPGDSVSLSCRASQSISNNLHWYQQKSHESPRLLIKYASQSISGIPSRFSGSGSGTDFTLSINSVETEDFGVYFCQQSNTWPYTFGGGTKLEIKRTVAAPSVFIFPPSDEQLKSGTASVVCLLNNFYPREAKVQWKVDNALQSGNSQESVTEQDSKDSTYSLSSTLTLSKADYEKHKVYACEVTHQGLSSPVTKSFNRGEC
notes: Fc-attenuated IgGsc format; also called CC-2 V9
As for B1, in experiment [1], the “EC50 (read off the curve)” value is around 5 nM. Besides, the EC50 in experiment [2] is 4.1 nM.

B2: mouse FLT3 (4G8) x CD3 (humanized UCHT1) bispecific IgGsc antibody V6-V6 (bispecific antibody)
heavy: QVQLQQPGAELVKPGASLKLSCKSSGYTFTSYWMHWVRQRPGHGLEWIGEIDPSDSYKDYNQKFKDKATLTVDRSSNTAYMHLSSLTSDDSAVYYCARAITTTPFDFWGQGTTLTVSSASTKGPSVFPLAPSSKSTSGGTAALGCLVKDYFPEPVTVSWNSGALTSGVHTFPAVLQSSGLYSLSSVVTVPSSSLGTQTYICNVNHKPSNTKVDKKVEPKSCDKTHTCPPCPAPPVAGPSVFLFPPKPKDTLMISRTPEVTCVVVGVSHEDPEVKFNWYVDGVEVHNAKTKPREEQYNSTYRVVSVLTVLHQDWLNGKEYKCKVSNKQLPSPIEKTISKAKGQPREPQVYTLPPSRDELTKNQVSLTCLVKGFYPSDIAVEWESNGQPENNYKTTPPVLDSDGSFFLYSKLTVDKSRWQQGNVFSCSVMHEALHNHYTQKSLSLSPGKSGDIQMTQSPSSLSASVGDRVTITCRASQDIRNYLNWYQQKPGKAPKLLIYYTSRLESGVPSRFSGSGSGTDYTLTISSLQPEDFATYYCQQGNTLPWTFGQGTKVEIKGGGGSGGGGSGGGGSEVQLVESGGGLVQPGGSLRLSCAASGYSFTGYTMNWVRQAPGKGLEWVALINPYKGVSTYNQKFKDRFTISVDKSKNTAYLQMNSLRAEDTAVYYCARSGYYGDSDWYFDVWGQGTLVTVSS
light: B1 light
notes: also called CC-2; parental 4G8 x UCHT1
Turning to B2, the half-maximal effective concentration (EC50 (read off the curve)) in experiment [1] is around 10 nM. The molecule also returned an EC50 in experiment [2] of 10.8 nM.
